Substitutions are numbered along the chain they refer to. Names may count otherwise.

The record followed here is patent US20110150888A1 (Amgen, published 2011).

T1: human hepcidin (mature, 25 amino acids) (human, mono-biotinylated in the ELISAs and on the KinExA beads (site not stated); unlabelled in solution and on the BIAcore chip)
T1 construct: the form is named in each assay field; also called rhuHepc; rhHepc
T1 peptide: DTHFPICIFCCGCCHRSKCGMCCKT

B1: antibody 19B8 (antibody, V domains shown)
VH: QVHLQQWGAGPLKPSETLSLTCAVYNGSFSGYYWSWIRQPPGKGLDWIGDINHSGNTKYNPSLKSRVTISVDTAKNQFSLKLSSVTAADTAVYYCARGDFWSGFDWFDPWGQGTLVTVSS
VL: QSALTQPASVSGSPGQSITISCTGTSSNVGTYKLVSWYQQHPGKAPKLMISEVSKRPSGLSNRFSGSKSGNTASLTISGLQAEDEADYYCSSYAGDSTLVFGGGTKLTVL
notes: Human antibody from Xenomouse IgG2 or IgG4 mice
B2: antibody 20E12 (antibody, V domains shown)
VH: B1 VH with H3Q, N26G, D46E, A74S, S83N
VL: B1 VL with T31S, K33N, I50L, N62S, N71D, S91C, D96S
notes: as for B1
B3: antibody 22H10 (antibody, V domains shown)
VH: B1 VH with D46E
VL: B1 VL with G43D, M49I, A86V
notes: as for B1
B4: antibody 23A11 (antibody, V domains shown)
VH: B1 VH with D46E, S83N
VL: B1 VL with V100I, F101V
notes: as for B1
B5: antibody 22F12 (antibody, V domains shown)
VH: B1 VH with H3Q, N26G, D46E, A74S, Q77H
VL: B1 VL with T31S, K33N, Q40K, S91C, D96S
notes: as for B1
B6: 15E1 A89H (antibody, V domains shown)
VH: QVQLVESGGGVVQPGRSLRLSCAASGFTFSSYGMHWVRQAPGKGLEWVAVIWYAESNKYYADSVKGRFTISRDNSKNTLYLQMNSLRAEDTAVYYCARAQEGIAPDAFDIWGQGTMVTVSS
VL: SYELTQPPSVSVSPGQTATITCSGDKLGERYACWYQQRPGQSPVLVIYQDSKRPSGIPERFSGSNSGNTATLTISGTQAMDEADYFCQHWYSSTNVLFGGGTKLTVL
notes: Histidine mutant of 15E1, transiently expressed in 293-6E cells; constant regions as in wild-type 15E1; also called A89H (light chain)
B7: 15E1 L27H (antibody, V domains shown)
VH: B6 VH
VL: B6 VL with L27H, H89A
notes: Histidine mutant of 15E1, transiently expressed in 293-6E cells; constant regions as in wild-type 15E1; also called L27H (light chain)
B8: 15E1 A107H L27H (antibody, V domains shown)
VH: B6 VH with A107H
VL: B6 VL with L27H, H89A
notes: Double histidine mutant of 15E1 (one change in each chain); constant regions as in wild-type 15E1; also called A107H (heavy chain)/L27H (light chain)
B9: 15E1 A99H A107H (antibody, V domains shown)
VH: B6 VH with A99H, A107H
VL: B6 VL with H89A
notes: Double histidine mutant of 15E1; constant regions as in wild-type 15E1; also called A107H (heavy chain)/A99H (heavy chain)
B10: 15E1 W52H (antibody, V domains shown)
VH: B6 VH with W52H
VL: B6 VL with H89A
notes: Histidine mutant of 15E1, transiently expressed in 293-6E cells; constant regions as in wild-type 15E1; also called W52H (heavy chain)
B11: 15E1 A107H A89H (antibody, V domains shown)
VH: B6 VH with A107H
VL: B6 VL
notes: Double histidine mutant of 15E1 (one change in each chain); constant regions as in wild-type 15E1; also called A107H (heavy chain)/A89H (light chain)
B12: 15E1 N57H A107H (antibody, V domains shown)
VH: B6 VH with N57H, A107H
VL: B6 VL with H89A
notes: Double histidine mutant of 15E1; constant regions as in wild-type 15E1; also called A107H (heavy chain)/N57H (heavy chain)

One experiment has as its target T1, human hepcidin (mature, 25 amino acids). The experiment is described as follows: antibody at 1:250 dilution; KinExA / BIAcore named in the paragraph. On the technique in general: Kinetic exclusion samples the free partner from a solution-phase mixture.
On to B1, for which the “fold reduction in affinity at pH 6 compared to pH 7.4” value (shortened to “fold reduction in affinity”) was about 10 fold.
The same measure, in the same setting: in the case of B2 it was about 10 fold; in that of B3, about 10 fold.
For the molecule B4, the “fold reduction in affinity” value was about 10 fold.
Take B5: the “fold reduction in affinity” value was about 10 fold.

For the next experiment the target is unchanged. The experiment is described as follows: ELISA, mono-biotinylated human hepcidin on Neutravidin plate, pH 5.5. The protocol:
(§1) Differential pH binding of the antibodies listed above in Table 3 was then determined by ELISA. 50 μL of Neutravidin (Pierce) at 8 μg/mL in 1×PBS was coated upon a Nunc Maxisorp 384-well plate, and incubated at 37° C. for 1 hr. After blocking the wells with 0.1% BSA/PBS/0.05% Tween20 for 1 hour at room temperature, plates were washed six times with PBS/0.05% Tween20. 25 μL of mono-biotinylated hepcidin at 50 ng/mL in 0.1% BSA/PBS/0.05% Tween20 was added to the 384-well plate, and incubated at room temperature for 1 hour. The plates were next washed six times with PBS/0.05% Tween20. Starting hepcidin antibody concentrations were normalized to 1 μg/mL for pH 5.5 and 6.0 conditions and to 100 ng/mL for pH 7.4 conditions. The hepcidin antibodies were serially diluted 3-fold in PBS/1% NFDM pH 7.4 and 4-fold in PBS/1% NFDM pH 6.0 and 5.5. The dilutions and titrations were performed in polypropylene 96-well dilution plates, and then were transferred in duplicate to a Neutravidin-coated 384-well plate. The biotinylated hepcidin and antibodies were incubated for 2 hours at room temperature. The plate was next washed six times with PBS/0.05% Tween20. 25 μL it of goat anti-huIgG-horseradish peroxidase at a 1:7000 dilution in 0.1% BSA/PBS/0.05% Tween20 was next added to each well of the assay plate. The plate was finally washed six times in PBS/0.05% Tween20. Enhanced K-Blue 3,3′,5,5′-Tetramethylbenzidine (TMB) Substrate (Neogen) was added and the reaction stopped using 1 M H₃PO₄ after 10 minutes of incubation at room temperature. The absorption was measured at 450 nm on a plate reader. Binding data were analyzed by non-linear regression analysis (sigmoidal dose-response, variable slope) to generate EC₅₀ values using GraphPad Prism® software. […] Double combinations of these mutants were made.
The EC50 is the concentration that produces a half-maximal response. Consider B6, for which the EC50 was found to be 0.012 µg/mL.
As to B7, the EC50 turned out to be 0.008 µg/mL.
Same read-out and setting: next, B8: 0.316 µg/mL.
Turning to B9, the EC50 was determined as 0.0161 µg/mL.
Still for that read-out and setting: next, B10: 0.017 µg/mL.

Another experiment has the same target. Description: ELISA, mono-biotinylated human hepcidin on Neutravidin plate, pH 6.0. The protocol: as §1
For the molecule B6, the EC50 was determined as 0.0106 µg/mL.
As for B7, the EC50 was found to be 0.0065 µg/mL.
On to B8, for which the half-maximal effective concentration (EC50) was determined as 0.0193 µg/mL.
The same measure, in the same setting: next, B11: 0.0347 µg/mL; B12: 0.0756 µg/mL; B9: 0.0055 µg/mL.
On the same count and under the same terms, next, B10: 0.0058 µg/mL.

The next experiment shares this target. The experiment is described as follows: ELISA, mono-biotinylated human hepcidin on Neutravidin plate, pH 7.4. As for the experimental part: as §1
In general terms: An ELISA detects its analyte on a solid surface through an enzyme-linked reagent.
Take B6: the 50% effective concentration (EC50) turned out to be 5.4 ng/mL.
As for B7, the EC50 turned out to be 4.5 ng/mL.
Regarding B8, the concentration giving a half-maximal response (EC50) turned out to be 4.3 ng/mL.
On the same count and under the same terms, in the case of B11 it was 6 ng/mL.
On to B12, for which the EC50 worked out at 7.3 ng/mL.
Consider B9, for which the EC50 is 3 ng/mL.
For the molecule B10, the EC50 stood at 4.5 ng/mL.

The next experiment has the same target. The experiment is described as follows: ELISA, mono-biotinylated human hepcidin on Neutravidin plate, pH 6.0 against pH 7.4. The protocol: as §1
Consider B6, for which the “fold increase in EC50 as the pH was lowered to 6.0” value is at least 1.5 fold.
In the case of B7, the “fold increase in EC50 as the pH was lowered to 6.0” value is at least 1.5 fold.
Still for that read-out and setting: in the case of B8 it was at least 5.5 fold.
In the case of B11, the “fold increase in EC50 as the pH was lowered to 6.0” value is at least 5.5 fold.
Turning to B12, the “fold increase in EC50 as the pH was lowered to 6.0” value was at least 5.5 fold.
For the molecule B9, the “fold increase in EC50 as the pH was lowered to 6.0” value was at least 5.5 fold.
Same read-out and setting: next, B10: at least 1.5 fold.
